Source: article PMC3068246

Target: cis GFP: loop:s11 (light-activated truncated GFP with the 11th β-strand removed, chromophore in the cis configuration)
Assay: absorbance spectroscopy

Substance: s11, synthetic peptide corresponding to strand 11 of GFP
- Kd: < 1 pM
